test: soluble on expression in E. coli; label from the status in PepcDB or PDB records

| Sequence | soluble on expression in E. coli |
| --- | --- |
| GPGSMSTQLISGGEDGSHSQLMDLVLTNCSRPQSRASDNKQSTDGVVRLTSYVDLPNRDTLLPPIAEPKGGVPETSETLFPRRLGFDMIGVSSVSEEMLRDLYEVFDVHQSGGVERGVLREMMRSGFSHFGAPCSDRDLDRFFENVTPFRVRRRRTPKEGEVDVVPFNEFCVAFLSWLRR | soluble |
| GPGSMTEYKKLCAILAQLREEVTSLSCAFEGGEGQDTVALHSLSTSIQKLVTNAQPRLLKILRKATETDPNRQIYNEAMCAAIKQLFDDFCELLSCLFGVPMEEMVLSEGKINFEDSPSISWTEDVHNNYLLHLAQTEAWKKRIATNIADLVLFEEETRTVYFAEERKARETLLQIKRNEKTNILHMLKEREAAKWEAEVRRRNDEHKGLMNASSFYGVQNIATVLLRIPEPFRKLLAGNMAQLVRALRTTPEDPNIRRIRCNNRRVMMDYSHVVFCGECETCRILVAAAEILWYIMGYRVEYSTAPTSSLRTVIENNPPILLPCGRYASEHAIAVIGFEEYSERFFTLHEPDPMQDSDEWMVWYATLEALLARLEDCLV | not soluble |
| GPGSMTYCPITRKELERYLPNFDPLLDPQIGEWVLVTPERRFAILGPLLQFVQEHAIKPIYPFLDNSEPSSAPVTTFNFCKEDSPKTLGDPSKVFPTLSEVWRRYRRRRFHISGMDEDGIGEEEENDDTILYLNPRALLLTPCAPAVFGGSDFIEGLDREGERVVFVNWKTGETRTDSGVLKPAPIPAWAEDVAEKAAMEWESWKKCVIPPSSTRE | soluble |
| GPGSMVLIECKRLPKDEYSKDYDVFLVSIPGVTNIGEATDVLQQMRNTRVRIKWMMAAAKQLAKDFCSEEQQHHLLGPVADAERYMSLERAERRLTCTQKELDDLVDAFKGGAMILFPAECSGTDAVKRLAQLLDDDNTTDTERSKAHRLLSIIDDGATTEDILQGVATMWWSGKQLDRAADFTKYVGKNEKTKITVKLTAKDAPAPPREPALDAKAQSELMAYYFRKQEEMKKMIEDEDLSYGNSAWANPQGLKSQLHGFDSVKFKPG | soluble |
| GPHMTQEEAVVNASLWEYVRLRESYDADTAQYAYDLVSNFSAPMVRQNYQQFFNYPNPTSPQVILGKHGRLEVEHIASNDVTPGVQQIRYKRTLIVDGKMPMASTWTATVRYEKVTSLPGRLRLTNPGGLVVTSYQTSEDTVSNAGHSEP | soluble |
| GPLGSKELKVTQPEKSVSVAAGDSTVLNCTLTSLLPVGPIKWYRGVGQSRLLIYSFTGEHFPRVTNVSDATKRNNMDFSIRISNVTPEDAGTYYCVKFQKGPSEPDTEIQSGGGTEVYVL | soluble |
| GPNANPIPEHFFAPYIDMSLSVHKPLVEYAKLTGTKYFTLAFILYSSVYNGPAWAGSIPLEKFVDEVRELREIGGEVIIAFGGAVGPYLCQQASTPEQLAEWYIKVIDTYNATYLDFDIAAGIDADKLADALLIVQRERPWVKFSFTLPSDPGIGLAGGYGIIETMAKKGVRVDRVNPMTMDYYWTPSNAENAIKVAENVFRQLKQIYPEKSDEEIWKMIGLTPMIGVNDDKSVFTLEDAQQLVDWAIQHKIGSLAFWSVDRDHPGPTGEVSPLHRGTNDPDWAFSHVFVKFMEAFGYTFSAQTSEASVPT | soluble |
| GPQDPDKRRKTLVIIEKTYSLLLDVEDYERRYLLSLEEERPALMDDRKHKICSMYDNLRGKLPGQERPSDDHFVQIMCIRKGKRMVARILPFLSTEQAADILMTTARNLPFLIKKDAQDEVLPCLLSPFSLLLYHLPSVSITSLLRQLMNLPQSAATPALSNPHLTAVLQNKFGLSLLLILLSRGEDLQSSDPATESTQNNQWTEVMFMATRELLRIPQAALAKPISIPTNLVSLFSRYVDRQKLNLLETKLQLVQ | soluble |
| GPVPTPPDNIQVQENFNISRIYGKWYNLAIGSTCPWLKKIMDRMTVSTLVLGEGATEAEISMTSTRWRKGVCEETSGAYEKTDTDGKFLYHKSKWNITMESYVVHTNYDEYAIFLTKKFSRHHGPTITAKLYGRAPQLRETLLQDFRVVAQGVGIPEDSIFTMADRGECVPGEQEPEPILIPRV | soluble |
| GQEVTVSCAEGDTGFIYAGLLDVQITDVALDNMPKAPVKVMMNVGNPELAFSFANLPSEGIGLARMEFIINRQIGIHPKALLEFDKQDDELKAEITRRIAGYASPVDFYVDKIAEGVATLAASVYPRKTIVRMSDFKSNEYANL | not soluble |
| GQSLRSFQKQNEDNDKRQQILRSINVNVSSSEAETKYNELIKEAFLVNENGEKVEGDAFATDVVKAATEHQYPVFVANVDGQPKYIMALHGAGLWGPLWGYISVDSDKNTIYGADFSHQGETPGLGAEISKPVFSNEFKGKKIFMSGEFKSVAVVKPGKSVAGQDYVDGISGGTITSKGVDEMLFNSLSGYVKFLTSQN | soluble |
| GQSMTQQLRVLKSGVDIVVGTPGRVIDHLERKSLNLEHIAYFVLDEADEMLNMGFIDDIKEILKSTGPNKRMLFFSATMPKAILGIVKKHMQNYEHITIEKEELTETLTEQIYFEVKESDKFEALCRIIDIEDEFYGLVFCRTKTDTSQLAQKLSDRGYLADALHGDLSQQEREKILNKFRKQKINILAATDVAARGIDIMDLTHVINYALPQDPESYVHRIGRTGRAGKQGTAITFVTSTEFRRLTYIKKTSKSEMKKGHIPEIKDVIKAKRARVRTELEETIKTEEYGDCLEMSQKLLEEYPAEKILAALLKFTFKDKFDESMYTEISSGSSYVDRKGKSRLFIAMGKADGMTPDKLSYFIQEELGDGELKVRDAEIFPHFSFVTLPFAQAETLIEIFKNKRRGSKPFVELAQKSRGRSSKDSGETRSDNRGTSRGNSRNGESRGDSRGESRGTKSTNYSRSTRSTRSTKK | not soluble |
| GSDIGQVIHPDDFDKAAADDYVLHEDGEKIYFLIKSKTDEYCFTNLALVHLDGESAVSSKRVLYRYPYAHYPIRHVMFETAGTVDLDVEIKFEIGGKHYSIDVDKKQLEHVKDLYKALLAIAEKQYEGQKMLEFANSSLNHSVTILGGLRQGDMNVPQTFKDLSQESFDWLQGHYYKWNQKDFGSFYEKYINN | soluble |
| GSEEHCAPNKEPVKYGELVVLGYNGALPNGDRGRRKSRFALYKRPKANGVKPSTVHVISTPQASKAISCKGQHSISYTLSRNQTVVVEYTHDKDTDMFQVGRSTESPIDFVVTDTISGSQNTDEAQITQSTISRFACRIVCDRNEPYTARIFAAGFDSSKNIFLGEKAAKWKNPDGHMDGLTTNGVLVMHPRGGFTEESQPGVWREISVCGDVYTLRETRSAQQRGKLVESETNVLQDGSLIDLCGATLLWRTADGLFHTPTQKHIEALRQEINAARPQCPVGLN | soluble |
| GSEQKKRRLEEGTRANSVAESSPPFPLRSKTSVGSTNSQITETKNKQGVYPITESNLRILEGEDRSEKAKELLKKYVSNVFENEKTLYIYCKYVMLHYGKDLVNPNEVDSLEFQIINGGITNILIKVKDMSKQAKYLIRLYGPKTDEIINREREKKISCILYNKNIAKKIYVFFTNGRIEEFMDGYALSREDIKNPKFQKLIAKNLKLLHDIKLNENLYKELQVTQKVPGTRPSFLWNTIWKYFHLLNEERKKICSFDAKANILKLIDFDVLRDSIVEVESLCKRENSPIVLCHCDLLSSNIINTVGGGEAGELGEAGETGEGGETGEGGETGEGGETGEGGEGDSISFIDFEYSCPMERAYDIANHFNEYAGFNCDWDLTPSKEEEYHFIMHYLGTDDEELINQLIREIQPFYICSHINWGLWSLLQGMHSSIDFDFINYGMTRLTASCLPIFRSKV | soluble |
| GSGGARGLYLQTVTYNFLKEQGDNRIVRTQALPATRGTVSDRNGAVLALSAPTESLFAVPKDMKEMPSAAQLERLSELVDVPVDVLRNKLEQKGKSFIWIKRQLDPKVAEEVKALGLENFVFEKELKRHYPMGNLFAHVIGFTDIDGKGQEGLELSLEDSLYGEDGAEVVLRDRQGNIVDSLDSPRNKAPQNGKDIILSLDQRIQTLAYEELNKAVEYHQAKAGTVVVLDARTGEILALANTPAYDPNRPGRADSEQRRNRAVTDMIEPGSAIKPFVIAKALDAGKTDLNERLNTQPYKIGPSPVRDTHVYPSLDVRGIMQKSSNVGTSKLSARFGAEEMYDFYHELGIGVRMHSGFPGETAGLLRNWRRWRPIEQATMSFGYGLQLSLLQLARAYTALTHDGVLLPLSFEKQAVAPQGKRIFKESTAREVRNLMVSVTEPGGTGTAGAVDGFDVGAKTGTARKFVNGRYADNKHVATFIGFAPAKNPRVIVAVTIDEPTAHGYYGGVVAGPPFKKIMGGSLNILGISPTKPLTAAAVKTPS | soluble |
| GSGGIEGRHMVELLKLVRSSGCAAKVGPGDLQEILKGFNIYTDESTLVSIGDDAGVYEHNGIIWVYTVDIITPVVNDPYLWGAISTANALSDVYAMGGIPVNALAISCFNNCELDIEIFREVIRGALDKLREAKTVLLGGHTIDDKEPKFGLSVAGICPEGKYITQSGAQVGQLLILTKPIGTGILIKGLKEGILKEEDINEAIENMLALNDKARNLMLSLDATACTDVTGFGLLGHAWNICKNSNIGARIFFEKVPYYQLSENLVKKKIYPKGAIENLNFVKNYLKSNLDNWKLILLSDPVTSGGLLFTINKEKLEKIDETAKELEVNYWIIGETIAENVLEVL | soluble |
| GSGRVSLNFKDPEAVRALTCTLLREDFGLSIDIPLERLIPTVPLRLNYIHWVEDLIGHQDSDKSTLRRGIDIGTGASCIYPLLGATLNGWYFLATEVDDMCFNYAKKNVEQNNLSDLIKVVKVPQKTLLMDALKEESEIIYDFCMCNPPFFANQLEAKGVNSRNPRRPPPSSVNTGGITEIMAEGGELEFVKRIIHDSLQLKKRLRWYSCMLGKKCSLAPLKEELRIQGVPKVTYTEFCQGRTMRWALAWSFYD | soluble |
| GSHMASKISDNVRIKLYMEGTVNNHHFMCEAEGEGKPYEGTQMENIKVTKGGPLPFSFDILTPNCQYGSVAITKYTSGIPDYFKQSFPEGFTWERTTIYEDGAYLTTQQETKLDGNCLVYNIKILGCNFPPNGPVMQKKTQGWEPCCEMRYTRDGVLCGQTLMALKCADGNHLTCHLRTTYRSKKAAKALQMPPFHFSDHRPEIVKVSENGTLFEQHESSVARYCQTCPSKLGHN | soluble |
| GSHMASMFGKLREKLKSFVKRVEEEVEKEEEEVEKKGLLDRILTVEIKEKDVDKALDELEIDLLEADVALEVVDALREKIKQKLVGKKVRIGTDKGKIIEEAVKEAVSEILETSRRIDLIEEIRKAEKPYVIMFVGFNGSGKTTTIAKLANWLKNHGFSVVIAASDTFRAGAIEQLEEHAKRIGVKVIKHSYGADPAAVAYDAIQHAKARGIDVVLIDTAGRSETNRNLMDEMKKIARVTKPNLVIFVGDALAGNAIVEQARQFNEAVKIDGIILTKLDADARGGAALSISYVIDAPILFVGVGQGYDDLRPFEKEWFLERIFGEENA | soluble |
| GSHMASMTGGQQMGRGSEFKKYLETNGIKPKQFHKKELIFNQWDPQEYCIFLYDGITKLTSISENGTIMNLQYYKGAFVIMSGFIDTETSVGYYNLEVISEQATAYVIKINELKELLSKNLTHFFYVFQTLQKQVSYSLAKFNDFSINGKLGSICGQLLILTYVYGKETPDGIKITLDNLTMQELGYSSGIAHSSAVSRIISKLKQEKVIVYKNSCFYVQNLDYLKRYAPKLDEWFYLACPATWGKLN | soluble |
| GSHMDDDLVDAEGNLVENGGTYYLLPHIWAHGGGIETAKTGNEPCPLTVVRSPNEVSKGEPIRISSQYRSLFIPRGSLVALGFANPPSCAASPWWTVVDSPQGPAVKLSQQKLPEKDILVFKFEKVSHSNIHVYKLLYCQHDEEDVKCDQYIGIHRDRNGNRRLVVTEENPLELVLLKAKSETASSH | soluble |
